In the assay the target is T1, Ste2 (yeast) (UniProt D6VTK4).
T1 sequence (looked up): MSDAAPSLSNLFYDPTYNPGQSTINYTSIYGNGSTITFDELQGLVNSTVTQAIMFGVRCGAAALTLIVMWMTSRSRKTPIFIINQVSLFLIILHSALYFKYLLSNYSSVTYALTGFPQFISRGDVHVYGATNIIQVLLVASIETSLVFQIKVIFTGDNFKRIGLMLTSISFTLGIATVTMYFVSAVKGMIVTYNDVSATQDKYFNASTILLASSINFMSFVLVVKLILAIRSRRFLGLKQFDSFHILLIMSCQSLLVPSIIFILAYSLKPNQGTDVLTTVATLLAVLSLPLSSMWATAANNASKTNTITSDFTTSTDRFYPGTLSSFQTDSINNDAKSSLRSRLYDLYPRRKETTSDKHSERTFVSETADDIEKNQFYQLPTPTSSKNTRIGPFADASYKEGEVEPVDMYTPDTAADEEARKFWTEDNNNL
The assay is described as follows: cell-based or functional assay.

For “α-factor (from UniProt P01149 90-102) (peptide)”, the Maximum Fold Induction, lacZ assay, Fus1p-lacZ reporter, ligand incubation 1 hr, Gα GPA1 stood at 22 fold; the Maximum Fold Induction, lacZ assay, Fus1p-lacZ reporter, ligand incubation 2 hrs, Gα GPA1 came to 123 fold; the Maximum Fold Induction, lacZ assay, Fus1p-lacZ reporter, ligand incubation 3 hrs, Gα GPA1 was 218 fold; the Maximum Fold Induction, lacZ assay, LBF system (p8op-lacZ reporter), ligand incubation 1 hr, Gα GPA1 amounted to 29 fold. Besides, the Maximum Fold Induction, lacZ assay, LBF system (p8op-lacZ reporter), ligand incubation 2 hrs, Gα GPA1 was 63 fold and the Maximum Fold Induction, lacZ assay, LBF system (p8op-lacZ reporter), ligand incubation 3 hrs, Gα GPA1 came out at 36 fold.

The values are drawn from patent US20030170760A1.
